Test results taken from US20240400677A1 (ELECTRA THERAPEUTICS, published 2024).
Residue numbers refer to the chain shown, from its start.

T1: cynomolgus monkey SIRPγ-His monomer protein (cynomolgus monkey, UniProt Q9P1W8 29-359 (human entry), limits assumed)
T1 construct: also called Cyno SIRPγ; Cyno SIRPγ-His
T1 chain: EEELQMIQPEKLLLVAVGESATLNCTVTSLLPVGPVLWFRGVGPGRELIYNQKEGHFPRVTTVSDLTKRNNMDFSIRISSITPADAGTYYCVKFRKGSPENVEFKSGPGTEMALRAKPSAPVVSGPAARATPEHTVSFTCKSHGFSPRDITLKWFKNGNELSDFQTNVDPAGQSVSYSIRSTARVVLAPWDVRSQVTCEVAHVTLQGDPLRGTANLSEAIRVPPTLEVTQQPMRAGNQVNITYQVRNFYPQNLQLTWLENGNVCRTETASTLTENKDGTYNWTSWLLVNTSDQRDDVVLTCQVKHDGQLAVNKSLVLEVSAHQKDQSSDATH

T2: cynomolgus monkey SIRPα on CHO cells (cynomolgus monkey, UniProt A0A2K5VYQ9 31-507)
T2 construct: whole, on cells; also called Cyno SIRPα CHO
T2 sequence: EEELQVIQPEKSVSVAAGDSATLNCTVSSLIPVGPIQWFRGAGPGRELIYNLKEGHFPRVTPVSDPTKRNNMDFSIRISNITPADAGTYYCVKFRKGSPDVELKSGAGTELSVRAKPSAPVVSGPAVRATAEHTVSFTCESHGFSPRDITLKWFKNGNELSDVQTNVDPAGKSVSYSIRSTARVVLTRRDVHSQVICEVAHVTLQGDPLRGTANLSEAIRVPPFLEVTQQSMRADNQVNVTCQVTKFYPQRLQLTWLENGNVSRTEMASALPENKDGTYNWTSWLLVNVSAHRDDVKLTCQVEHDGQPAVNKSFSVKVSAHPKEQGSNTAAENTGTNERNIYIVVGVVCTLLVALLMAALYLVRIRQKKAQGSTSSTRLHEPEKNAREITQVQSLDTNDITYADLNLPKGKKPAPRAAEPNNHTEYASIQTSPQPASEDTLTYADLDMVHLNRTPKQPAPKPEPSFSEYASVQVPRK

T3: cynomolgus monkey SIRPγ on CHO cells (cynomolgus monkey, UniProt Q9P1W8 29-386 (human entry))
T3 construct: also called Cyno SIRPγ CHO
T3 chain: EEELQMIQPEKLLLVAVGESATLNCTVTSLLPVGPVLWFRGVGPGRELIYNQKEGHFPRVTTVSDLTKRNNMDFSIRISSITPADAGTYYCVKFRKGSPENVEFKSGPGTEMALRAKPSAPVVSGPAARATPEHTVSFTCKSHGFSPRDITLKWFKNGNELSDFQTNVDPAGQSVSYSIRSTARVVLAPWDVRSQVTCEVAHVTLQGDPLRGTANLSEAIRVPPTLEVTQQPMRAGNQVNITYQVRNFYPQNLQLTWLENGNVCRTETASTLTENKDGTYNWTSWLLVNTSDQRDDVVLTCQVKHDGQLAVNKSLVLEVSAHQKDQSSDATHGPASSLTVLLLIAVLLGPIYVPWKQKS

T4: Cynomolgus Monkey SIRPγ (plate-coated extracellular domain)
T4 construct: also called Cyno SIRPγ
T4 extracellular domain: T1 chain

B1: Antibody 6 (antibody, V domains shown)
VH: QVQLVQSGAEVKKPGASVKVSCKASGYTFTGYHIHWVRQAPGQGLEWMGWINPNSGGTNYAQKFQGRVTMTRDTSINTAYMELNRLRSDDTAVFYCARERVGYCSRPSCLDDLNIWGQGTMVTVSS
VL: DIQMTQSPSTLSASVGDRVTITCRASQSISSWLAWYQQKPGKAPKLLIYKASSLETGVPSRFSGSGSGTEFTLTISSLQPDDFATYYCQQYDSYYTFGQGTKLEIK
B2: Antibody 5 (antibody, V domains shown)
VH: B1 VH
VL: B1 VL
B3: Antibody 88 (antibody, V domains shown)
VH: QVQLVQSGAEVKKPGASVKVSCKASGYTFTSHDINWVRQAPGQGLEWMGWMNANNGNAGYAQKFQGRVTMTRDTSTSTVYMELSSLRSEDTAVYYCAKDLSPSSSWSTYYYYYGMDVWGQGTMVTVSS
VL: DIQMTQSPSSLSASVGDRVTITCRASQSISNLLAWYQQKPGKAPKLLIYAASSLQSGVPSRFSGSGSGTDFTLTISSLQPEDFATYYCQQSYSTPYTFGQGTKLEIK
B4: Antibody 95 (antibody, V domains shown)
VH: QVQLVQSGAEVKKPGASVKVSCKASGYTFTSYYMHWVRQAPGQGLEWMGWMNPNSGNTGYAQKFQGRVTMTRDTSTSTVYMELSSLRSEDTAVYYCARDQMYSSYGMDVWGQGTTVTVSS
VL: B3 VL with Q27E, S30T, L32W, A50K, Q55E, S93G, L104V
B5: Antibody 84 (antibody, V domains shown)
VH: QVQLVQSGAEVKKPGASVKVSCKASGYTFTSYYMHWVRQAPGQGLEWMGWINPNSGNAGFAQKFQGRVTMTRDTSTSTVYMELSSLRSEDTAVYYCARGPVYSYGPFDYWGQGTLVTVSS
VL: B3 VL with S28G, N31T, L32Y, S53T, Y92H, T94A, Y96I, L104V
B6: Antibody 94 (antibody, V domains shown)
VH: QVQLVQSGAEVKKPGASVKVSCKASGYTFTSYGISWVRQAPGQGLEWMGWISAYNGNTNYAQKFQGRVTMTRDTSTSTVYMELSSLRSEDTAVYYCARGTYYDYIWGSYRYSWFDYWGQGTLVTVSS
VL: not shown
B7: Antibody 97 (antibody, V domains shown)
VH: QVQLVQSGAEVKKPGASVKVSCKASGHTFNNNYIHWVRQAPGQGLEWMGIINPSGGSTSYAQKFQGRVTMTRDTSTSTVYMELSSLRSEDTAVYYCARQIQDYGYYYYGMDVWGQGTTVTVSS
VL: EIVMTQSPATLSVSPGERATLSCRASQSVSKYLAWYQQKPGQAPRLLIYAISARAAGIPARFSGSGSGTEFTLTISSLQSEDFAVYYCQQYYSSPPTFGQGTKVEIK
B8: Antibody 54 (antibody, V domains shown)
VH: QVQLVQSGAEVKKPGASVKVSCKASGYSFSDYYMHWVRQAPGQGLEWMGWMSPNSGNTGYAQKFQGRVTMTRDTSTSTVYMELSSLRSEDTAVYYCARQREEYGHYYYGMDVWGQGTMVTVSS
VL: EIVMTQSPATLSVSPGERATLSCRASQSLGSTYLAWYQQKPGQAPRLLIYGASTRATGIPARFSGSGSGTEFTLTISSLQSEDFAVYYCQQYYSSPPTFGQGTKVEIK
B9: Antibody 64 (antibody, V domains shown)
VH: QVQLVQSGAEVKKPGASVKVSCKASGYTFTSYYMHWVRQAPGQGLEWMGRINPNSGGTKYAQKFQGRVTMTRDTSTSTVYMELSSLRSEDTAVYYCARLGSAYFDLWGRGTLVTVSS
VL: DIQMTQSPSSLSASVGDRVTITCRASQSVDTWLAWYQQKPGKAPKLLIYEASTLESGVPSRFSGSGSGTDFTLTISSLQPEDFATYYCQQANSFPITFGQGTRLEIK

These binders were tested against T5, human SIRPγ on primary human T-cells (human, UniProt Q9P1W8 29-387) (assay: flow cytometry, dye-conjugated antibody, human whole blood (3 donors)).
T5 construct: endogenous SIRPγ of donor T-cells; also called SIRPγ on T-cells
Method: Selected antibodies and an isotype control were tested for binding to human T-cells, B-cells, NK cells, monocytes, and granulocytes. […] Up to 50 μg/mL fluorescent dye-conjugated antibodies or isotype controls were incubated with whole blood from three normal donors. T-cells were identified as the CD14−, CD20−, SSClow, and CD3+ population or further identified to be CD4+ or CD8+ populations. B-cells were identified as the CD14−, SSClow, and CD20+ population. NK cells were identified as CD14−, CD20−, CD3−, and CD56+. Monocytes were identified as the SSClow and CD14+ population. Granulocytes were identified as the CD14−, CD20−, CD3−, SSChigh population. Graphs depict the median fluorescence intensity (MFI) of each population.

T5 sequence (Q9P1W8 29-387 limits assumed): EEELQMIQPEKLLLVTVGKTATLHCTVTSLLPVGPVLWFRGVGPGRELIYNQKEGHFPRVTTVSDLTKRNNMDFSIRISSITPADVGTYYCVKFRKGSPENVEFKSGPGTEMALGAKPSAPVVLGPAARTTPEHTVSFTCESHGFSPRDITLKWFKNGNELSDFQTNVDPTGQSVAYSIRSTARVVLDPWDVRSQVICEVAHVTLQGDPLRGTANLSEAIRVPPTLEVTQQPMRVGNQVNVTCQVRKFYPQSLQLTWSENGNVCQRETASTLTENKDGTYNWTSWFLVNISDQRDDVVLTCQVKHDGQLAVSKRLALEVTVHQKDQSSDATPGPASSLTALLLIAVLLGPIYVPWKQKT

Row | Binder | EC50 (read off the curve) [µg/mL]
1 | B1 | ~0.1
2 | B2 | ~0.1

The binders below were run against T6, bivalent human SIRPγ protein with mouse Fc (human, UniProt Q9P1W8 29-360) (assay: BLI Octet, antibody on AHC, global 1:2 model).
T6 construct: also called Human SIRPγ-mFc
Method: (§1) Antibodies were coated onto anti-human Fc capture (AHC) biosensors. SIRP-His monomer protein or bivalent SIRP protein with mouse Fc at four concentrations (200 nM, 100 nM, 50 nM, 25 nM) were exposed to the biosensor to measure on-rate kinetics of SIRP antibodies binding to SIRP protein. The biosensors were then exposed to wash buffer to measure off-rate kinetics. The resulting kinetic data were analyzed and fitted using a global 1:2 binding model.

T6 sequence (Q9P1W8 29-360 limits assumed): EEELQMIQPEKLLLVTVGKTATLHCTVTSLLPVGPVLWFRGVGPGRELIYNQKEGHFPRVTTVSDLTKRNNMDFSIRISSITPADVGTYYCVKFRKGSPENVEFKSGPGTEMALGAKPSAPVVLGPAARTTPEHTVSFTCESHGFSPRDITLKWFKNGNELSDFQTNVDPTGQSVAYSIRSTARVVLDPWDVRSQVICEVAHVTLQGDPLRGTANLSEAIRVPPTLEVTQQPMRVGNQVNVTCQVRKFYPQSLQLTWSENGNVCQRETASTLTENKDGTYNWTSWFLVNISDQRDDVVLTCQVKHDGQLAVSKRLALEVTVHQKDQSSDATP

Row | Binder | Kd [nM]
3 | B3 | 50.6
4 | B4 | 1280
5 | B5 | 2050
6 | B6 | 80.2
7 | B7 | 48.4

Each binder was assayed against T7, human SIRPγ-His monomer protein (human, UniProt Q9P1W8 29-360) (assay: BLI Octet, antibody on AHC, global 1:2 model).
T7 construct: also called hSIRPγ
Method: as §1

T7 sequence (Q9P1W8 29-360 limits assumed): as above

Row | Binder | Kd [nM]
8 | B3 | 136
9 | B4 | 193
10 | B6 | 30.1
11 | B7 | 362

Biological target: T1, cynomolgus monkey SIRPγ-His monomer …
Experiment: BLI Octet, antibody on AHC, global 1:2 model
Method: as §1

Row | Binder | Kd [nM]
12 | B3 | 67.8
13 | B4 | 40.3
14 | B5 | 34.1
15 | B6 | 42.6
16 | B7 | 16.3

Each binder was assayed against T8, human SIRPβ1 on CHO cells (co-transfected with DAP12) (human, UniProt O00241 30-398) (assay: flow cytometry, CHO transfectants, anti-human IgG).
T8 construct: whole, on cells; co-transfected with DAP12; also called Human SIRPβ1 CHO
Summary of the method: (§2)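 Stably transfected CHO cells were incubated with titrated antibodies, and binding was detected with a fluorescent anti-human IgG secondary. Median fluorescence intensity was recorded at each concentration. For the myc-scFv format, crude periplasmic extract was incubated with the SIRP-expressing lines and parental CHO-K1, and fold change <2.0 was scored as non-binder.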

T8 sequence (O00241 30-398): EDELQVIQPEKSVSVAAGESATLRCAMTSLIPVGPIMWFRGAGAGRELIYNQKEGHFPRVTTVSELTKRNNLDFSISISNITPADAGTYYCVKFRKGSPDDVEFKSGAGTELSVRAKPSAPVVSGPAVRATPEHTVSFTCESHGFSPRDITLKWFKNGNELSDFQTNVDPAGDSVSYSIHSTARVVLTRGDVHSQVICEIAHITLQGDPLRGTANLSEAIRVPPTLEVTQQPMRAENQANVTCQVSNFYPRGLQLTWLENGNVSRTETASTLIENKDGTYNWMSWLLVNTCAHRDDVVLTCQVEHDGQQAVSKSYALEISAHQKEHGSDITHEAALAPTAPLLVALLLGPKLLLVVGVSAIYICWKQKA

Row | Binder | binding result
17 | B3 | no binding (tested: about 30 µg/mL)
18 | B4 | no binding (tested: about 30 µg/mL)
19 | B8 | no binding (tested: about 20 µg/mL)
20 | B5 | no binding (tested: about 30 µg/mL)
21 | B6 | no binding (tested: about 30 µg/mL)
22 | B7 | no binding (tested: about 30 µg/mL)

These binders were tested against T2, cynomolgus monkey SIRPα on CHO cells (assay: flow cytometry, CHO transfectants, anti-human IgG).
Summary of the method: as §2

Row | Binder | binding result
23 | B3 | no binding (tested: about 30 µg/mL)
24 | B4 | no binding (tested: about 30 µg/mL)
25 | B8 | no binding (tested: about 20 µg/mL)
26 | B9 | no binding (tested: about 20 µg/mL)
27 | B5 | no binding (tested: about 30 µg/mL)
28 | B6 | no binding (tested: about 30 µg/mL)
29 | B7 | no binding (tested: about 30 µg/mL)

What follows are binders tested against T9, human SIRPγ on stably transfected CHO cells (human, UniProt Q9P1W8 29-387) (assay: flow cytometry, CHO transfectants, anti-human IgG).
T9 construct: also called Human SIRPγ CHO
Summary of the method: as §2

T9 sequence (Q9P1W8 29-387 limits assumed): as the sequence (Q9P1W8 29-387 limits assumed) above

Row | Binder | EC50 (read off the curve) [µg/mL]
30 | B3 | ~0.7
31 | B8 | ~0.9
32 | B9 | ~0.1
33 | B5 | ~0.2

Biological target: T3, cynomolgus monkey SIRPγ on CHO cells
Experiment: flow cytometry, CHO transfectants, anti-human IgG
Summary of the method: as §2

Row | Binder | EC50 (read off the curve) [µg/mL]
34 | B8 | ~0.8
35 | B9 | ~0.4
36 | B5 | ~0.2

These binders were tested against T10, extracellular binding domain of human SIRPγ (plate-coated) (human, UniProt Q9P1W8 29-360) (assay: competition ELISA, coated SIRPγ ECD, antibody 1 h then 10 µg/mL biotinylated CD47-Fc (blocked ligand), streptavidin-HRP).
T10 construct: also called hSIRPγ
Method: To carry out the competition experiment, the extracellular binding domain of SIRPγ was coated onto a high protein-binding plate and blocked. A titration of each SIRPγ antibody was incubated on the plate for 1 hour. […] Following a wash, streptavidin-HRP was added. The plate was washed again and developed using a chemiluminescent substrate. The plate was read on a plate reader to assess luminescence. […] A known blocker antibody was used as a positive control.

T10 sequence (Q9P1W8 29-360 limits assumed): as the sequence (Q9P1W8 29-360 limits assumed) above

Row | Binder | IC50 (read off the curve) [µg/mL]
37 | B3 | ~0.4
38 | B4 | ~1
39 | B8 | ~0.1
40 | B9 | ~0.2
41 | B5 | ~0.2
42 | B6 | ~0.2
43 | B7 | ~0.3

Biological target: T4, Cynomolgus Monkey SIRPγ (plate-coated …)
Experiment: ELISA, coated SIRP ECD (2 µg/mL), anti-human IgG, luminescence
Summary of the method: (§3)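 Plate-coated SIRP extracellular domain (2 μg/mL), blocked, then exposed to purified antibodies in titration, after transient expression in Expi293F cells for 5 days and Protein A purification. Bound antibody is detected with anti-human IgG and a chemiluminescent substrate, and reported as relative luminescence units.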

Row | Binder | EC50 (read off the curve) [µg/mL] | binding result
44 | B1 | ~0.1 | –
45 | B2 | ~0.07 | –
46 | B9 | – | binds

These binders were tested against T10, extracellular binding domain of human … in the same assay as above.
Summary of the method: as §3

Row | Binder | EC50 (read off the curve) [µg/mL]
47 | B1 | ~0.02
48 | B3 | ~0.04
49 | B4 | ~0.07
50 | B2 | ~0.02
